Measurements reported in patent US20210188940A1 (BIOAGE LABS, published 2021).

T1: HMGB1 (amphoterin) (UniProt P09429 1-215, limits assumed)
T1 sequence (looked up): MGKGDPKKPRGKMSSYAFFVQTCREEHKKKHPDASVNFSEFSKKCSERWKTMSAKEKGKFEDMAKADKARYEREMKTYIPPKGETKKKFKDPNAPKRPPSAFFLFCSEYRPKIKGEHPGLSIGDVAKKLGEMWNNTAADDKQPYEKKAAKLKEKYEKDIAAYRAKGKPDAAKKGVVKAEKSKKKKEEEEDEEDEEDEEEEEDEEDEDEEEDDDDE

T2: S100A12 (UniProt P80511 1-92, limits assumed)
T2 sequence (looked up): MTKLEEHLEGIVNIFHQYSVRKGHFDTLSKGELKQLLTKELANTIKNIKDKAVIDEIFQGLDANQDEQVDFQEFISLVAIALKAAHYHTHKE

T3: S100A9 (UniProt P06702 1-114, limits assumed)
T3 sequence (looked up): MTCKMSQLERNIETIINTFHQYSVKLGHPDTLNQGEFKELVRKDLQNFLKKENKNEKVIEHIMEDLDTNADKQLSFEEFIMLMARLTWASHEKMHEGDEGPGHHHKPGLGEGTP


Experiments:
Assay in all cases: ELISA, ligand coated on plate, RAGE-Fc titrated, anti-IgG Fc-HRP detection; apparent Kd
HMGB1 (amphoterin) = biological target: T1, HMGB1 (amphoterin)
Protocol: (§1) Functional ELISA assays were performed to assess the ligand binding characteristics of RAGE-Fc fusion proteins. Apparent binding affinities of RAGE-Fc fusion proteins to the RAGE ligands CML-HSA, HMGB1, S100A9 and S100A12 were measured for the following fusion proteins: Construct #1 (SEQ ID NO: 5), Construct #9 (SEQ ID NO: 53), Construct #10 (SEQ ID NO: 12), Construct #12 (SEQ ID NO: 15), and Construct #16 (SEQ ID NO: 16). Previous experiments were carried out to determine fundamental functionality of an ELISA, optimal coating concentrations and volumes, a dynamic range for the RAGE-Fc constructs, as well as optimized antibody dilutions and TMB development times.
(§2) RAGE ligands CML-HSA, HMGB1, S100A9 and S100A12 were separately coated onto a coated plate (MaxiSorp™) at a concentration of 50 nanomolar (nM), 100 microliters (μL) per well. RAGE ligand CML-HSA was separately coated onto a coated plate (MaxiSorp™) at a concentration of 100 nanograms (ng), 100 μL per well. The plates were then incubated overnight at 4° C. to allow the protein to bind to the plate coating. Following the coating step, the plates were washed once with 150 μL of wash solution (2.67 mM potassium chloride, […], 136.9 mM sodium chloride, 8.10 mM sodium phosphate dibasic, 0.05% Tween-20). […] After the blocking step, two washes were performed with the wash solution. The RAGE-Fc fusion protein was then incubated on the wells in log10 dilution with each separate ligand for 120 minutes at 37° C. while shaking. After the RAGE-Fc binding step, three washes were performed with the wash solution. Binding of the RAGE-Fc fusion to […], HMGB1, S100A9, and S100A12 was detected with a horseradish peroxidase (HRP) conjugated antibody with antigen specificity to IgG Fc (Abcam, Cat. No. ab99759). 100 μL of antibody diluted 1:5000 in DBPS was added to the assay wells, followed by 60 minutes of incubation at 37° C. while shaking. The wells were then washed four times with the wash solution. 100 μL of TMB (ThermoFisher Scientific, Cat. No. 34029) was then added to each well.

S100A12 = biological target: T2, S100A12
Protocol: as §1, §2

S100A9 = biological target: T3, S100A9
Protocol: as §1, §2

[1] = biological target: T4, CML-HSA (carboxymethylated human serum albumin) (human, UniProt P02768 25-609, carboxymethylated (CML); modified sites not stated)
T4 construct: An advanced glycation end-product form of HSA, coated on the ELISA plate
T4 sequence (P02768 25-609 limits assumed): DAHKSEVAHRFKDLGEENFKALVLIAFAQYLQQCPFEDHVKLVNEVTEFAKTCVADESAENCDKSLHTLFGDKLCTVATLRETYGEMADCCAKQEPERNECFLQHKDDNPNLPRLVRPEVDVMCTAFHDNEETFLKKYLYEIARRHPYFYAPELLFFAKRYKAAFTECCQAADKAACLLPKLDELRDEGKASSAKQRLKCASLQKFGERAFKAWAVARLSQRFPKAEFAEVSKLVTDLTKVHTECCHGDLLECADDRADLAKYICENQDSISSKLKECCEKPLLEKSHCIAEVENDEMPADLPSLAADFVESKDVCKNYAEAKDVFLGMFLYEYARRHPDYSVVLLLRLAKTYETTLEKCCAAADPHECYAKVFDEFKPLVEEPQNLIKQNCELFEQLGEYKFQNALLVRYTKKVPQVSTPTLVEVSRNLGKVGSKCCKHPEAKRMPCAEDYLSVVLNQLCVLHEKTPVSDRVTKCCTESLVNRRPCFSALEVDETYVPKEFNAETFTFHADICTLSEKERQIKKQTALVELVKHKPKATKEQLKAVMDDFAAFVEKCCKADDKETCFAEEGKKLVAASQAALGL
Protocol: as §1, §2

Kd (HMGB1 (amphoterin))	Kd (S100A12)	Kd (S100A9)	Kd [1]	Binder
7 nM	44 nM	25 nM	39 nM	Construct #12: RAGE V-C1-C2-V1stem(M/A)-IgG2 lower hinge-(IgG4CH2-CH3) (Fc fusion, also called esRAGE-Fc fusion) AQNITARIGEPLVLKCKGAPKKPPQRLEWKLNTGRTEAWKVLSPQGGGPWDSVARVLPNGSLFLPAVGIQDEGIFRCQAMNRNGKETKSNYRVRVYQIPGKPEIVDSASELTAGVPNKVGTCVSEGSYPAGTLSWHLDGKPLVPNEKGVSVKEQTRRHPETGLFTLQSELMVTPARGGDPRPTFSCSFSPGLPRHRALRTAPIQPRVWEPVPLEEVQLVVEPEGGAVAPGGTVTLTCEVPAQPSPQIHWMKDGVPLPLPPSPVLILPEIGPQDQGTYSCVATHSSHGPQESRAVSISIIEPGEEGPTAGEGFDKVREAEDSPQHAVECPPCAPPVAGGPSVFLFPPKPKDTLMISRTPEVTCVVVDVSQEDPEVQFNWYVDGVEVHNAKTKPREEQFNSTYRVVSVLTVLHQDWLNGKEYKCKVSNKGLPSSIEKTISKAKGQPREPQVYTLPPSQEEMTKNQVSLTCLVKGFYPSDIAVEWESNGQPENNYKTTPPVLDSDGSFFLYSRLTVDKSRWQEGNVFSCSVMHEALHNHYTQKSLSLSLGK
7 nM	36 nM	27 nM	35 nM	Construct #16: RAGE V-C1-C2-V1stem(M/A)-IgG2 lower hinge-(IgG4CH2-CH3)-YTE (Fc fusion, also called #12 + YTE; esRAGE-Fc fusion) AQNITARIGEPLVLKCKGAPKKPPQRLEWKLNTGRTEAWKVLSPQGGGPWDSVARVLPNGSLFLPAVGIQDEGIFRCQAMNRNGKETKSNYRVRVYQIPGKPEIVDSASELTAGVPNKVGTCVSEGSYPAGTLSWHLDGKPLVPNEKGVSVKEQTRRHPETGLFTLQSELMVTPARGGDPRPTFSCSFSPGLPRHRALRTAPIQPRVWEPVPLEEVQLVVEPEGGAVAPGGTVTLTCEVPAQPSPQIHWMKDGVPLPLPPSPVLILPEIGPQDQGTYSCVATHSSHGPQESRAVSISIIEPGEEGPTAGEGFDKVREAEDSPQHAVECPPCAPPVAGGPSVFLFPPKPKDTLYITREPEVTCVVVDVSQEDPEVQFNWYVDGVEVHNAKTKPREEQFNSTYRVVSVLTVLHQDWLNGKEYKCKVSNKGLPSSIEKTISKAKGQPREPQVYTLPPSQEEMTKNQVSLTCLVKGFYPSDIAVEWESNGQPENNYKTTPPVLDSDGSFFLYSRLTVDKSRWQEGNVFSCSVMHEALHNHYTQKSLSLSLGK
